Source: the RNAGym collection of RNA variant scans (doi:10.7554/elife.80360)

B1: HDV Ribozyme (parent)
chain: GGCCGGCAUGGUCCCAGCCUCCUCGCUGGCGCCGGCUGGGCAACAUUCCGAGGGGACCGUCCCCUCGGUAAUGGCGAAUGGGACCCA

Variants of: B1
Experiment: self-cleavage, relative activity (ratio to wild type); higher = more cleavage; co-transcriptional
GGCCGGCAUGGUCCCAGCCUCCUCGCUGGCGCCGGCUGGGCAACAUUCCGAGCGGACCGUCCCCUCGGUAAUGGCGACUGGGACCCA showed a self-cleavage of 0.0678. Variant GGCCGGCAUGGUCCCAGCCUCCUCGCUGGCGCCGGCUGGGCAACAUUCCGAGCGGACCGUCCCCUCGGUAAUGGCGAAUGGGGCCCA has a self-cleavage of 0.815. Variant GGCCGGCAUGGUCCCAGCCUCCUCGCUGGCGCCGGCUGGGCAACAUUCCGAGCGGACCGUCCCCUCGGUAAUGGCGAAUGGGUCCCA has a self-cleavage of 0.332. Variant GGCCGGCAUGGUCCCAGCCUCCUCGCUGGCGCCGGCUGGGCAACAUUCCGAGCGGACCGUCCCCUCGGUAAUGGCGAAUGGGACCCG has a self-cleavage of 0.971. Variant GGCCGGCAUGGUCCCAGCCUCCUCGCUGGCGCCGGCUGGGCAACAUUCCGAGCGGAGCGUCCCCUCGGUAAUGGCGAAUGGGACCCA has a self-cleavage of 1.14. With GGCCGGCAUGGUCCCAGCCUCCUCGCUGGCGCCGGCUGGGCAACAUUCCGAGCGGAUCGUCCCCUCGGUAAUGGCGAAUGGGACCCA the self-cleavage was 0.969. In the case of GGCCGGCAUGGUCCCAGCCUCCUCGCUGGCGCCGGCUGGGCAACAUUCCGAGCGGACGGUCCCCUCGGUAAUGGCGAAUGGGACCCA, the self-cleavage is reported as 1. GGCCGGCAUGGUCCCAGCCUCCUCGCUGGCGCCGGCUGGGCAACAUUCCGAGCGGACCGUACCCUCGGUAAUGGCGAAUGGGACCCA gave a self-cleavage of 1.04. GGCCGGCAUGGUCCCAGCCUCCUCGCUGGCGCCGGCUGGGCAACAUUCCGAGCGGACCGUCCUCUCGGUAAUGGCGAAUGGGACCCA showed a self-cleavage of 0.997. Variant GGCCGGCAUGGUCCCAGCCUCCUCGCUGGCGCCGGCUGGGCAACAUUCCGAGCGGACCGUCCCAUCGGUAAUGGCGAAUGGGACCCA has a self-cleavage of 0.724. For GGCCGGCAUGGUCCCAGCCUCCUCGCUGGCGCCGGCUGGGCAACAUUCCGAGCGGACCGUCCCUUCGGUAAUGGCGAAUGGGACCCA, the self-cleavage was 0.703. For GGCCGGCAUGGUCCCAGCCUCCUCGCUGGCGCCGGCUGGGCAACAUUCCGAGCGGACCGUCCCCUCGGUAAUGGCGAAUGGGAACCA, the self-cleavage was 0.76. With GGCCGGCAUGGUCCCAGCCUCCUCGCUGGCGCCGGCUGGGCAACAUUCCGAGCGGACCGUCCCCUCGGUAAUGGCGAAUGGGAGCCA the self-cleavage was 0.696. Work on GGCCGGCAUGGUCCCAGCCUCCUCGCUGGCGCCGGCUGGGCAACAUUCCGAGCGGACCGUCCCCUCGGUAAUGGCGAAUGGGACUCA yielded a self-cleavage of 0.808. GGCCGGCAUGGUCCCAGCCUCCUCGCUGGCGCCGGCUGGGCAACAUUCCGAGCGGACCGUCCCCUCGGUAAUGGCGAAUGGGACCUA gave a self-cleavage of 0.799. In the case of GGCCGGCAUGGUCCCAGCCUCCUCGCUGGCGCCGGCUGGGCAACAUUCCGAGCAGACCGUCCCCUCGGUAAUGGCGAAUGGGACCCA, the self-cleavage is reported as 1.08. GGCCGGCAUGGUCCCAGCCUCCUCGCUGGCGCCGGCUGGGCAACAUUCCGAGCGGACCGUCCCCUCGAUAAUGGCGAAUGGGACCCA gave a self-cleavage of 0.577. With GGCCGGCAUGGUCCCAGCCUCCUCGCUGGCGCCGGCUGGGCAACAUUCCGAGCGGACCGUCCCCUCGUUAAUGGCGAAUGGGACCCA the self-cleavage was 0.475. For GGCCGGCAUGGUCCCAGCCUCCUCGCUGGCGCCGGCUGGGCAACAUUCCGAGCGGACCGUCCCCUCGGUAAUGGCUAAUGGGACCCA, the self-cleavage was 0.967. In the case of GGCCGGCAUGGUCCCAGCCUCCUCGCUGGCGCCGGCUGGGCAACAUUCCGAGCGGACCGUCCCCUCGGUAAUGGCGAAUAGGACCCA, the self-cleavage is reported as 0.307. Variant GGCCGGCAUGGUCCCAGCCUCCUCGCUGGCGCCGGCUGGGCAACAUUCCGAGCGGACCGUCCCCUCGGUAAUGGCGAAUCGGACCCA has a self-cleavage of 0.0755. Variant GGCCGGCAUGGUCCCAGCCUCCUCGCUGGCGCCGGCUGGGCAACAUUCCGAGCGGACCGUCCCCUCGGUAAUGGCGAAUUGGACCCA has a self-cleavage of 0.293. Work on GGCCGGCAUGGUCCCAGCCUCCUCGCUGGCGCCGGCUGGGCAACAUUCCGAGCGGACCGCCCCCUCGGUAAUGGCGAAUGGGACCCA yielded a self-cleavage of 1. In the case of GGCCGGCAUGGUCCCAGCCUCCUCGCUGGCGCCGGCUGGGCAACAUUCCGAGCGGACCGUCCCCUCGGUAAUGGCGAACGGGACCCA, the self-cleavage is reported as 0.47. GGCCGGCAUGGUCCCAGCCUCCUCGCUGGCGCCGGCUGGGCAACAUUCCGAGUGGCCCGUCCCCUCGGUAAUGGCGAAUGGGACCCA showed a self-cleavage of 0.831. GGCCGGCAUGGUCCCAGCCUCCUCGCUGGCGCCGGCUGGGCAACAUUCCGAGUGGACCGUCCCCUCGGUCAUGGCGAAUGGGACCCA gave a self-cleavage of 0.774. Variant GGCCGGCAUGGUCCCAGCCUCCUCGCUGGCGCCGGCUGGGCAACAUUCCGAGUGGACCGUCCCCUCGGUACUGGCGAAUGGGACCCA has a self-cleavage of 0.538. Work on GGCCGGCAUGGUCCCAGCCUCCUCGCUGGCGCCGGCUGGGCAACAUUCCGAGUGGACCGUCCCCUCGGUAAUGGCGAAUGGGCCCCA yielded a self-cleavage of 0.6. In the case of GGCCGGCAUGGUCCCAGCCUCCUCGCUGGCGCCGGCUGGGCAACAUUCCGAGUGGACCGUCCCCUCGGUAAUGGCGAAUGGGGCCCA, the self-cleavage is reported as 0.739. Work on GGCCGGCAUGGUCCCAGCCUCCUCGCUGGCGCCGGCUGGGCAACAUUCCGAGUGGACCGUCCACUCGGUAAUGGCGAAUGGGACCCA yielded a self-cleavage of 1.2. GGCCGGCAUGGUCCCAGCCUCCUCGCUGGCGCCGGCUGGGCAACAUUCCGAGUGGACCGUCCCUUCGGUAAUGGCGAAUGGGACCCA showed a self-cleavage of 0.853. With GGCCGGCAUGGUCCCAGCCUCCUCGCUGGCGCCGGCUGGGCAACAUUCCGAGUGGACCGUCCCCUCGGUAAUGGUGAAUGGGACCCA the self-cleavage was 0.277. Variant GGCCGGCAUGGUCCCAGCCUCCUCGCUGGCGCCGGCUGGGCAACAUUCCGAGUGGACCGUCCCCUCGGUAAUGGCGAAUGGGAUCCA has a self-cleavage of 0.821. GGCCGGCAUGGUCCCAGCCUCCUCGCUGGCGCCGGCUGGGCAACAUUCCGAGUGGACCGUCCCCUCGGUAAUGGCGAAUGGGACACA showed a self-cleavage of 0.931. Variant GGCCGGCAUGGUCCCAGCCUCCUCGCUGGCGCCGGCUGGGCAACAUUCCGAGUGGACCGUCCCCUCGGUAAUGGCGAAUGGGACCAA has a self-cleavage of 1.07. GGCCGGCAUGGUCCCAGCCUCCUCGCUGGCGCCGGCUGGGCAACAUUCCGAGUGUACCGUCCCCUCGGUAAUGGCGAAUGGGACCCA gave a self-cleavage of 0.915. Variant GGCCGGCAUGGUCCCAGCCUCCUCGCUGGCGCCGGCUGGGCAACAUUCCGAGUGGACCGUCCCCUCUGUAAUGGCGAAUGGGACCCA has a self-cleavage of 0.715. With GGCCGGCAUGGUCCCAGCCUCCUCGCUGGCGCCGGCUGGGCAACAUUCCGAGUGGACCGUCCCCUCGUUAAUGGCGAAUGGGACCCA the self-cleavage was 0.703. GGCCGGCAUGGUCCCAGCCUCCUCGCUGGCGCCGGCUGGGCAACAUUCCGAGUGGACCGUCCCCUCGGUAAUGGCUAAUGGGACCCA gave a self-cleavage of 0.939. GGCCGGCAUGGUCCCAGCCUCCUCGCUGGCGCCGGCUGGGCAACAUUCCGAGUGGACCGUCCCCUCGGUAAUGGCGAAUGCGACCCA showed a self-cleavage of 0.385. GGCCGGCAUGGUCCCAGCCUCCUCGCUGGCGCCGGCUGGGCAACAUUCCGAGUGGACCGUCCCCUCGGUAAUGGCGAAUGGAACCCA showed a self-cleavage of 0.496. In the case of GGCCGGCAUGGUCCCAGCCUCCUCGCUGGCGCCGGCUGGGCAACAUUCCGAGUGGACCGGCCCCUCGGUAAUGGCGAAUGGGACCCA, the self-cleavage is reported as 0.972. GGCCGGCAUGGUCCCAGCCUCCUCGCUGGCGCCGGCUGGGCAACAUUCCGAGUGGACCGUCCCCACGGUAAUGGCGAAUGGGACCCA gave a self-cleavage of 0.69. In the case of GGCCGGCAUGGUCCCAGCCUCCUCGCUGGCGCCGGCUGGGCAACAUUCCGAGGAGACCGUCCCCUCGGUAAUGGCGAAUGGGACCCA, the self-cleavage is reported as 0.961. Variant GGCCGGCAUGGUCCCAGCCUCCUCGCUGGCGCCGGCUGGGCAACAUUCCGAGGAGGCCGUCCCCUCGGUAAUGGCGAAUGGGACCCA has a self-cleavage of 0.991. GGCCGGCAUGGUCCCAGCCUCCUCGCUGGCGCCGGCUGGGCAACAUUCCGAGGAGACCGUCCCCUCGGUGAUGGCGAAUGGGACCCA showed a self-cleavage of 0.79. Variant GGCCGGCAUGGUCCCAGCCUCCUCGCUGGCGCCGGCUGGGCAACAUUCCGAGGAGACCGUCCCCUCGGUACUGGCGAAUGGGACCCA has a self-cleavage of 0.753. With GGCCGGCAUGGUCCCAGCCUCCUCGCUGGCGCCGGCUGGGCAACAUUCCGAGGAGACCGUCCCCUCGGUAGUGGCGAAUGGGACCCA the self-cleavage was 0.959. Variant GGCCGGCAUGGUCCCAGCCUCCUCGCUGGCGCCGGCUGGGCAACAUUCCGAGGAGACCGUCCCCUCGGUAAUGGCGACUGGGACCCA has a self-cleavage of 0.247. For GGCCGGCAUGGUCCCAGCCUCCUCGCUGGCGCCGGCUGGGCAACAUUCCGAGGAGACCGUCCCCUCGGUAAUGGCGAGUGGGACCCA, the self-cleavage was 0.332. For GGCCGGCAUGGUCCCAGCCUCCUCGCUGGCGCCGGCUGGGCAACAUUCCGAGGAGACCGUCCCCUCGGUAAUGGCGAAUGGGACCCU, the self-cleavage was 0.922. GGCCGGCAUGGUCCCAGCCUCCUCGCUGGCGCCGGCUGGGCAACAUUCCGAGGAGACCGUACCCUCGGUAAUGGCGAAUGGGACCCA showed a self-cleavage of 1.07. With GGCCGGCAUGGUCCCAGCCUCCUCGCUGGCGCCGGCUGGGCAACAUUCCGAGGAGACCGUCCCGUCGGUAAUGGCGAAUGGGACCCA the self-cleavage was 0.657. For GGCCGGCAUGGUCCCAGCCUCCUCGCUGGCGCCGGCUGGGCAACAUUCCGAGGACACCGUCCCCUCGGUAAUGGCGAAUGGGACCCA, the self-cleavage was 1.04. In the case of GGCCGGCAUGGUCCCAGCCUCCUCGCUGGCGCCGGCUGGGCAACAUUCCGAGGAGACCGUCCCCUCAGUAAUGGCGAAUGGGACCCA, the self-cleavage is reported as 0.698. GGCCGGCAUGGUCCCAGCCUCCUCGCUGGCGCCGGCUGGGCAACAUUCCGAGGAGACCGUCCCCUCGGUAAUGGCCAAUGGGACCCA showed a self-cleavage of 1.04. GGCCGGCAUGGUCCCAGCCUCCUCGCUGGCGCCGGCUGGGCAACAUUCCGAGGAGACCGUCCCCUCGGUAAUGGCGAAUGUGACCCA showed a self-cleavage of 0.229. In the case of GGCCGGCAUGGUCCCAGCCUCCUCGCUGGCGCCGGCUGGGCAACAUUCCGAGGAGACCGUCCCCUCGGUAAUGGCGAAUGGUACCCA, the self-cleavage is reported as 0.205. With GGCCGGCAUGGUCCCAGCCUCCUCGCUGGCGCCGGCUGGGCAACAUUCCGAGGAGACCGACCCCUCGGUAAUGGCGAAUGGGACCCA the self-cleavage was 0.758. GGCCGGCAUGGUCCCAGCCUCCUCGCUGGCGCCGGCUGGGCAACAUUCCGAGGAGACCGCCCCCUCGGUAAUGGCGAAUGGGACCCA showed a self-cleavage of 1.06. In the case of GGCCGGCAUGGUCCCAGCCUCCUCGCUGGCGCCGGCUGGGCAACAUUCCGAGGAGACCGUCCCCCCGGUAAUGGCGAAUGGGACCCA, the self-cleavage is reported as 0.696. Variant GGCCGGCAUGGUCCCAGCCUCCUCGCUGGCGCCGGCUGGGCAACAUUCCGAGGAGACCGUCCCCUCGGAAAUGGCGAAUGGGACCCA has a self-cleavage of 0.982. For GGCCGGCAUGGUCCCAGCCUCCUCGCUGGCGCCGGCUGGGCAACAUUCCGAGGAGACCGUCCCCUCGGCAAUGGCGAAUGGGACCCA, the self-cleavage was 0.95. Variant GGCCGGCAUGGUCCCAGCCUCCUCGCUGGCGCCGGCUGGGCAACAUUCCGAGGAGACCGUCCCCUCGGUAAUGGCGAACGGGACCCA has a self-cleavage of 0.411.
